Source: PMC3867403
One block for each substance: values may come before it.

Legend:
[1] = target: ALK5-Flag (transforming growth factor-β receptor 1, TGFBR1) (UniProt P36897)
[2] = target: ALK5-Flag (transforming growth factor-β receptor 1, TGFBR1) (UniProt P36897); remark: listed apart in the source

Chain of UniProt P36897 (P36897 34-503): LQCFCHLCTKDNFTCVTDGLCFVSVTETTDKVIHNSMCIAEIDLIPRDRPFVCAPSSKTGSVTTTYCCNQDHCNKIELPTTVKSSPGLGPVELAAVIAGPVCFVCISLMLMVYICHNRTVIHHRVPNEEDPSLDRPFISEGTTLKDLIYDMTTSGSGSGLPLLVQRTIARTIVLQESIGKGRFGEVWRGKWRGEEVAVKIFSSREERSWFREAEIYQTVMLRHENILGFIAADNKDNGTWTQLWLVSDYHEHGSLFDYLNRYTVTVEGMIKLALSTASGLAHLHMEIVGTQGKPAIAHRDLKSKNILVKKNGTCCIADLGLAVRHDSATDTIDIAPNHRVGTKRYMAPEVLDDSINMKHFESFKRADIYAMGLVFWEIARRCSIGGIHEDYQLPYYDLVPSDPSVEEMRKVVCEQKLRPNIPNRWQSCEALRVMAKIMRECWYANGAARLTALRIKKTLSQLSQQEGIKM

rate constant 1 of healing of scratched HTCE cells, GST-Lum in basic medium [1]: 5.37 Δ%/h | rate constant 2 of healing of scratched HTCE cells, GST-Lum in basic medium [1]: 14.8 Δ%/h | rate constant 1 of healing of scratched HTCE cells, GST-Lum with the ALK5 inhibitor SB431542 (10 µM); monophasic, no rate constant 2 [2]: 1.89 Δ%/h
Substance: GST-Lum (recombinant GST-lumican fusion protein) (from UniProt P51885 19-338) (natural protein)

rate constant 1 of healing of scratched HTCE cells, GST-LumC50 in basic medium [1]: 5.35 Δ%/h | rate constant 2 of healing of scratched HTCE cells, GST-LumC50 in basic medium [1]: 14 Δ%/h
Substance: GST-LumC50 (GST fusion with the C-terminal 50 amino acids of Lum) (domain or fragment)

rate constant 1 of healing of scratched HTCE cells, LumC13 peptide [1]: 4.62 Δ%/h | rate constant 2 of healing of scratched HTCE cells, LumC13 peptide [1]: 13.5 Δ%/h
Substance: LumC13 peptide (the last C-terminal 13 amino acids of Lum)

rate constant 1 of healing of scratched HTCE cells, LumC13C-A peptide [1]: 5.1 Δ%/h | rate constant 2 of healing of scratched HTCE cells, LumC13C-A peptide [1]: 13.9 Δ%/h
Substance: LumC13C-A peptide (LumC13 with the cysteine substituted with alanine)
